From patent US20250145729A1 (DENALI THERAPEUTICS, published 2025)
Residue numbers refer to the chain shown, from its start. Names may count otherwise. Like-named read-outs stand apart in the source and are kept apart here.

T1: circularly permuted human TfR apical domain (human)
T1 construct: TfR residues 326-379 stand N-terminal to 194-296, loop 297-325 deleted; also called huTfR Apical Domain
T1 chain: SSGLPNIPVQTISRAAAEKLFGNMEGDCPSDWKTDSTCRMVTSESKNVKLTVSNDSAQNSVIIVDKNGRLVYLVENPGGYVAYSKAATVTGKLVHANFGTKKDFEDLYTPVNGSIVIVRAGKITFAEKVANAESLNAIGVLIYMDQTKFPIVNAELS

B1: Clone 4: LLB1-3 D380E bivalent, non-binding Fabs (Fc fusion)
chain: APELLGGPSVFLFPPKPKDTLMISRTPEVTCVVVDVSHEDPEVKFNWYVDGVEVHNAKTKPREEQYNSTYRVVSVLTVLHQDWLNGKEYKCKVSNKALPAPIEKTISKAKGQPREPQVYTLPPSRDELTKNQVSLTCLVKGFYPSDIAVEWRSYKPYENNYKTTPPVLDSDGSFFLYSKLTVDKSRWQQGNIFVCDVMHEALHNHYTIKKLSLSPGK
notes: bivalent; effector positive
B2: Clone 27: LLB2-10-8 monovalent, non-binding Fabs, LALAPG (Fc fusion)
chain 1: APEAAGGPSVFLFPPKPKDTLMISRTPEVTCVVVDVSHEDPEVKFNWYVDGVEVHNAKTKPREEQYNSTYRVVSVLTVLHQDWLNGKEYKCKVSNKALGAPIEKTISKAKGQPREPQVYTLPPSRDELTKNQVSLWCLVKGFYPSDIAVLWNSRFVLENNYKTTPPVLDSDGSFFLYSKLTVDKSRWQQGEIFACNVYHEALHNHYTFKNLALSPGK
chain 2: APEAAGGPSVFLFPPKPKDTLMISRTPEVTCVVVDVSHEDPEVKFNWYVDGVEVHNAKTKPREEQYNSTYRVVSVLTVLHQDWLNGKEYKCKVSNKALGAPIEKTISKAKGQPREPQVYTLPPSRDELTKNQVSLSCAVKGFYPSDIAVEWESNGQPENNYKTTPPVLDSDGSFFLVSKLTVDKSRWQQGNVFSCSVMHEALHNHYTQKSLSLSPGK
notes: effector negative (LALAPG)
B3: Clone 1: LLB2-10-8 bivalent, BACE1 Fabs (Fc fusion)
chain: B2 chain 1 with A4L, A5L, G99P, W136T
notes: bivalent; effector positive
B4: human CD98hc (receptor)
chain: CRELPAQKWWHTGALYRIGDLQAFQGHGAGNLAGLKGRLDYLSSLKVKGLVLGPIHKNQKDDVAQTDLLQIDPNFGSKEDFDSLLQSAKKKSIRVILDLTPNYRGENSWFSTQVDTVATKVKDALEFWLQAGVDGFQVRDIENLKDASSFLAEWQNITKGFSEDRLLIAGTNSSDLQQILSLLESNKDLLLTSSYLSDSGSTGEHTKSLVTQYLNATGNRWCSWSLSQARLLTSFLPAQLLRLYQLMLFTLPGTPVFSYGDEIGLDAAALPGQPMEAPVMLWDESSFPDIPGAVSANMTVKGQSEDPGSLLSLFRRLSDQRSKERSLLHGDFHAFSAGPGLFSYIRHWDQNERFLVVLNFGDVGLSAGLQASDLPASASLPAKADLLLSTQPGREEGSPLELERLKLEPHEGLLLRFPYAA
notes: also called huCD98hc; CD98 heavy chain
B5: 6.5.11.1 bivalent (Fc fusion)
chain: APELLGGPSVFLFPPKPKDTLMISRTPEVTCVVVDVSHEDPEVKFNWYVDGVEVHNAKTKPREEQYNSTYRVVSVLTVLHQDWLNGKEYKCKVSNKALPAPIEKTISKAKGQPREPQVYTLPPSRDELTKNQVSLTCLVKGFYPSDIAVNWFSNGQIENNYKTTPPVLDSDGSFFLYSKLTVDKSRWQQGNLFACEVMHEALHNHYTYKLLSLSPGK
notes: also called Clone 6.5.11.1 bivalent
B6: 42.2 LALA (bivalent clone 6.5.11.5.42.2 with LALA, anti-HER2 Fab) (Fc fusion)
chain: B5 chain with L4A, L5A, N150E, N154D, Q156S, I157K, N159T
B7: 6.5.11.5.42 bivalent (Fc fusion)
chain: B5 chain with L4A, L5A, N150Y, N154G, I157R
notes: both Fc with LALA
B8: 42.2 LALA LS (bivalent clone 6.5.11.5.42.2 with LALA and LS, anti-HER2 Fab) (Fc fusion)
chain: B5 chain with L4A, L5A, N150E, N154D, Q156S, I157K, N159T, M198L, N204S

Key:
human CD98hc [1] = target: B4; test: affinity as listed in study design table; method not given there; Bivalent, NBF Fabs
human CD98hc [2] = target: B4; test: affinity as listed in study design table; method not given there
human CD98hc [3] = target: B4; test: as above; remark: listed apart in the source
[4] = target: T2, Clone 18: LLB2-37 monovalent, non-binding Fabs (Homo sapiens (Human), UniProt P0DOX5 233-449 = IgG part; P0DOX5 233-449 = IgG part, T366W); test: as above
T2 construct: CD98hc site on the knob Fc only; effector positive

[5] = target: T3, Clone 8: LLB2-10-6 monovalent, non-binding Fabs (Homo sapiens (Human), UniProt P0DOX5 233-449 = IgG part; P0DOX5 233-449 = IgG part, T366W); test: as above
T3 construct: CD98hc site on the knob Fc only; effector positive

[6] = target: T3, Clone 8: LLB2-10-6 monovalent, …; test: as above; remark: listed apart in the source
[7] = target: T3, Clone 8: LLB2-10-6 monovalent, …; test: as above; remark: listed apart in the source
[8] = target: T4, Clone 13: LLB1-3-16 monovalent, non-binding Fabs (Homo sapiens (Human), UniProt P0DOX5 233-449 = IgG part; P0DOX5 233-449 = IgG part, T366W); test: as above
T4 construct: CD98hc site on the knob Fc only; effector positive

[9] = target: T3, Clone 8: LLB2-10-6 monovalent, …; test: as above; remark: listed apart in the source
[10] = target: T1, circularly permuted human TfR apical …; test: Biacore SPR, Fc-Fab fusion
TfR [11] = target: T5, TfR (Homo sapiens (Human), UniProt P02786 121-760, limits assumed); test: Biacore, control sample kept in PBS
T5 construct: also called transferrin receptor
Experimental: (§1) Clone 6.5.11.5.42.2, with and without LS mutations, was assessed for low pH stability during developability assessment. The tested proteins are bivalent Fc-Fab fusion polypeptides comprising an anti-HER2 Fab domain linked to two Fc polypeptides each having the sequence of the identified clone and LALA mutations, with LS mutations or without LS mutations. An Fc control containing the anti-HER2 Fab domain linked to an Fc domain with LALA mutations and without TfR-binding sites was included for comparison.
(§2) Aliquots (100 μL) of each clone were added to wells of a 96-well plate containing 6 μL of 5% (v/v) acetic acid and mixed well. The plate was sealed and incubated at room temperature for about three (3) hours. Subsequently, 35 μL of 1 M Tris HCl (pH 7.5) was added to the samples and mixed well. The plate was sealed once again and incubated at room temperature for 24 hours. Control condition was storage in 1× PBS without any change in pH during incubation. The samples were then analyzed by Biacore for binding affinity and by size exclusion chromatography to detect intact fusion protein. FIG. 22 and Table 26 provide the results of the analyses.

TfR [12] = target: T5, TfR; test: Biacore, after low pH hold and neutralisation
Experimental: as §1, §2

[13] = target: T1, circularly permuted human TfR apical …; test: Biacore SPR, Fc-Fab fusion; bivalent, LALA

Binder: B1
Kd (human CD98hc [1]): 1000 nM

Binder: B2
Kd (human CD98hc [2]): 100 to 200 nM

Binder: B3
Kd (human CD98hc [3]): 100 to 200 nM

Binder: B4
Kd [4]: 390 nM | Kd [5]: 260 nM | Kd [6]: 230 nM | Kd [7]: 260 nM | Kd [8]: 32 nM | Kd [9]: 260 nM

Binder: B5
Kd [10]: 20000 to 40000 nM

Binder: B6
Kd (TfR [11]): 1170 nM | Kd (TfR [12]): 1180 nM

Binder: B7
Kd [13]: 2000 nM

Binder: B8
Kd (TfR [11]): 1700 nM | Kd (TfR [12]): 1810 nM
